Reference: paper PMC8827073, “Topological and enzymatic analysis of human Alg2 mannosyltransferase reveals its role in lipid-linked oligosaccharide biosynthetic pathway” (Communications Biology, 2022)

Substrate: CC(=O)N[C@H]1[C@H](O[C@H]2[C@H](O)[C@@H](NC(C)=O)[C@@H](OP(=O)(O)OP(=O)(O)OCCC(C)CCCC(C)CCCC(C)CCCC(C)C)O[C@@H]2CO)O[C@H](CO)[C@@H](O[C@@H]2O[C@H](CO[C@H]3O[C@H](CO)[C@@H](O)[C@H](O)[C@@H]3O)[C@@H](O)[C@H](O)[C@@H]2O)[C@@H]1O
Assay: UPLC-MS mannosyltransferase assay, nonlinear regression
Type: biochemical, Homo sapiens
Conditions: 2 mM GDP-Man, 10 mM MgCl2, pH 6.0, 0.05% NP-40, 37 °C, 10 min, substrate range 8-200 μM, substrate not further purified

B1: hAlg2 (Trx-hAlg2) (Homo sapiens) (protein)
chain: MAEEQGRERDSVPKPSVLFLHPDLGVGGAERLVLDAALALQARGCSVKIWTAHYDPGHCFAESRELPVRCAGDWLPRGLGWGGRGAAVCAYVRMVFLALYVLFLADEEFDVVVCDQVSACIPVFRLARRRKKILFYCHFPDLLLTKRDSFLKRLYRAPIDWIEEYTTGMADCILVNSQFTAAVFKETFKSLSHIDPDVLYPSLNVTSFDSVVPEKLDDLVPKGKKFLLLSINRYERKKNLTLALEALVQLRGRLTSQDWERVHLIVAGGYDERVLENVEHYQELKKMVQQSDLGQYVTFLRSFSDKQKISLLHSCTCVLYTPSNEHFGIVPLEAMYMQCPVIAVNSGGPLESIDHSVTGFLCEPDPVHFSEAIEKFIREPSLKATMGLAGRARVKEKFSPEAFTEQLYRYVTKLLV
notes: N-terminal His6-Trx tag kept (pET32), expressed in E. coli Rosetta (DE3), HisTrap purified; about 57 kDa on SDS-PAGE
- Km: 136.7 ± 30.4 µM
- kcat: 1.05 ± 0.13 s⁻¹
